According to patent US20260193344A1 (H LUNDBECK A S, published 2026):

T1: ACTH 1-24 (human)
T1 peptide: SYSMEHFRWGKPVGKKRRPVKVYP

T2: human ACTH 1-39 (human, not fully specified; N-terminal biotin in the ELISA and HTRF binding assays (p-1487, p-1488); 125I on Tyr23 in Example 9 (p-1542); unlabelled in SPR. Letters unchanged.)
T2 peptide: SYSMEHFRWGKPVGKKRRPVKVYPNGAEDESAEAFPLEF

T3: human alpha-MSH (ACTH 1-13) (human, not fully specified; ends and bridges not checked)
T3 peptide: Ac-SYSMEHFRWGKPV-NH2

B1: Ab13 (antibody, human IgG1, kappa, N297A, V domains shown)
VH: QQLEESGGGLVKPGGTLTLTCTASGFSFSSGYDICWARQGPGKGLEWIGCIDTGSGNTYYASWAKGRFTMSRTSSTTVTLQVTSLTAADTATYFCAKGISSIWGPGTLVTVSS
VL: DIVMTQTPASVSEPVGGTVTIKCQASQTISSDLAWYQQKPGQPPKLLIYAASKLTSGVSSRFKGGGTGTQFTLTISDLECADAATYYCQTYYDIIDDGCTFGGGTEVVVKR
B2: Ab1 (antibody, V domains shown)
VH: QSVKESGGRLVTPGTPLTLTCTVSGFSLSNYDMIWVRQAPGKGLESIGMIYDDGDTYYASWAKGRFTISKTSTTVDLKIISPTTEDTATYFCVKGVSNHWGPGTLVTVSS
VL: DVVMTQTPASVEAAVGGTVTIKCQASQSISSYLAWYQQKPGQPPKLLIYSASTLASGVPSRFKGRGSGTEFTLTISDLECADAATYYCQSYDGSSGSSYGVGFGGGTEVVVKR
notes: Full-length rabbit/human chimeric antibody, HEK-293
B3: Ab10 (antibody, V domains shown)
VH: QSVEESGGRLVTPGTPLTLTCTVSGFSLSSADMIWVRQAPGKGLESIGMIYDDGDTYYATWAKGRFTISKTSTTVDLKIISPTTEDTATYFCVKGVSSVWGQGTLVTVSS
VL: DVVMTQTPASVEAAVGGTVTINCQASENIYRSLAWYQQKPGQPPKLLIYSASTLASGVPSRFKGSGSGTEFTLTISDLECADAATYYCQSYDGSSSSSYGVGFGGGTEVVVKR
B4: Ab3 (antibody, V domains shown)
VH: QSLEESGGRLVTPGTPLTLTCTVSGSSLSNFDMIWVRQAPGKGLESIGIIYDFGSTYYASWAKGRFTISRTSSTTVDLKIISPTIEDTATYFCVKGVSNIWGQGTLVTVSS
VL: DVVMTQTPASVEAAVGGTVTIKCQASEDISSNLAWYQQKLGQPPKLLIYSASTLASGVPSRFKGSGSGTEFTLAISDLECADAATYYCQSYDGSSSSSYGIGFGGGTEVVVKR
B5: Ab12 (antibody, V domains shown)
VH: QSVEESGGRLVTPGTPLTLTCTVSGSSLSDYDMIWVRQAPGKGLESIGIIYDDGDTYYATWAKGRFTISKTSTTVDLRIISPTTEDTATYFCVKGVSNMWGPGTLVTVSS
VL: DVVMTQTPSSVSAAVGGTVTIKCQASQSIGSSLAWYQQKPGQRPKLLIYAASTLASGVPSRFKGSGSGTEFTLTISDLECADAATYYCQSYDGSSSSSYGVGFGGGTEVVVKR
B6: Ab11 (antibody, V domains shown)
VH: QSLEESGGRLVTPGTSLTLTCTASGFSLSAYDILWVRQAPGKGLESIGMMYDDGDTYYATWAKGRFIISRTSTTMDLKIISPTTEDTATYFCVKGVSNIWGQGTLVTVSS
VL: DIVMTQIPASVEAAVGGTVTIKCQASQSIDSSLAWYQQKPGQPPKLLIYSASTLASGVPSRFKGSGSGTEFTLTIGDLECADAATYYCQSYDGSSSSYYGIGFGGGTEVVVKR
B7: Ab2 (antibody, V domains shown)
VH: QSVEESGGRLVTPGTPLTLTCTVSGFSLSKYDMIWVRQAPGKGLESIGIIYDDGDTYYASWAKGRFTISQTSTTVDLKIISPTTEDTATYFCVKGVSNIWGQGTLVTVSS
VL: DVVMTQTPASVEAAVGGTVTIKCQASQSISNYLAWYQQKTGQPPKLLIYSASTLASGVPSRFKGSGSGTEFTLTISDLECADAATYYCQSYEGSSSSSYGVGFGGGTEVVVKR
B8: Ab13.H (antibody, human IgG1, kappa, N297A, V domains shown)
VH: EVQLVESGGGLVQPGGSLRLSCAASGFTVSSGYDICWVRQAPGKGLEWIGCIDTGSGNTYYASSAKGRFTMSRDNSKNTVYLQMNSLRAEDTAVYYCAKGISSIWGQGTLVTVSS
VL: DIQMTQSPSTLSASVGDRVTITCQASQTISSDLAWYQQKPGKAPKLLIYAASKLTSGVPSRFSGSGSGTEFTLTISSLQPDDFATYYCQTYYDIIDDGATFGGGTKVEIKR
B9: Ab7 (antibody, V domains shown)
VH: QSVEESGGRLVTPGTPLTLTCTVSGFSLSSYAMSWVRQAPGEGLEWIGIISDSGSTYYASWAKGRFTISKTSTTVDLRITSPTTEDTATYFCAREPEYGYDDYGDWVSDLWGQGTLVTVSS
VL: DIVMTQTPASVEAAVGGTVTIKCQASQSISDYLSWYQQKPGQPPKLLIYRASTLASGVPSRFKGSGSGTQFTLTISDLECADAATYYCQSYYYSSSITYRNAFGGGTEVVVKR
notes: as for B2
B10: Ab6 (antibody, V domains shown)
VH: QSVEESGGRLVTPGTPLTLTCTVSGFSLTDYAMSWVRQAPGEGLEWIGIISDSGSTYYASWAKGRFTFSKTSTTVDLRITSPTTEDTATYFCAREPEYGYDEYGDWVSDLWGPGTLVTVSS
VL: DIVMTQTPASVEAAVGGAVTIKCQATQSIGNNLAWYQQKPGQPPKLLIYRASTLASGVPSRFKGSGSGTEFTLTISDLECADAATYYCQSYYYSSSITYHNAFGGGTEVVVKR
B11: Ab9 (antibody, V domains shown)
VH: QSVEESGGRLVTPGTPLTLTCTVSGFSLNSYAMSWVRQAPGEGLEWIGIISDSGRTYYASWAKGRFTISKTSTTVDLKITSPTTEDTATYFCAREPEYGYDDYGDWVSDLWGPGTLVTVSS
VL: DVVMTQTPASVEAAVGGTVTIKCQASQSISSYLSWYQQKPGQPPKLLIYRASTLASGVPSRFKGSGSGTQFTLTISDLECADAATYYCQSYYYSSSITYRNAFGGGTEVVVKR
B12: Ab5 (antibody, V domains shown)
VH: QSVEESGGRLVTPGTPLTLTCTVSGFSLSSYAMSWVRQAPGEGLEWIGIISDSGSTYYASWAKGRFTISKTSTTVDLKITSPTTEDTATYFCAREPEYGYDDYGDWVSDLWGQGTLVTVSS
VL: DIVMTQTPASVSEPVGGTVTIKCQASQSISSYLSWYQQKPGQPPKLLIYRASTLASGVPSRFKGSGSGTQFTLTISDLECADAATYYCQSYYYSSSITYRNAFGGGTEVVVKR

What was measured:
[1] = target: T1, ACTH 1-24; assay: cell-based or functional assay
[2] = target: T2, human ACTH 1-39; assay: cell-based or functional assay
[3] = target: T2, human ACTH 1-39; assay: cell-based or functional assay
[4] = target: T2, human ACTH 1-39; assay: SPR (ProteOn XPR36), antibody immobilized
Description: (§1) Antibody was immobilized to the surface of general amine coupling (GLC or GLM) Chips (Bio-Rad). […] Surfaces were regenerated between analyte queries using 10 mM glycine at pH 2.0.

[5] = target: T2, human ACTH 1-39; assay: cell-based or functional assay
[6] = target: T2, human ACTH 1-39; assay: cell-based or functional assay
[7] = target: T3, human alpha-MSH (ACTH 1-13); assay: SPR (ProteOn XPR36), antibody immobilized
Description: as §1

Binder	IC50, ACTH 1-24 induced cAMP, MC2R cells [1] [nM]	IC50, ACTH-induced cAMP, MC2R cells [2] [nM]	IC50, ACTH-induced cortisol, Y1 cells [3] [nM]	kon [4] [M⁻¹ s⁻¹]	IC50, ACTH-induced cAMP, MC3R cells [5] [nM]	IC50, ACTH-induced cAMP, MC4R cells [5] [nM]	IC50, ACTH-induced cAMP, MC5R cells [5] [µM]	IC50, ACTH-induced cAMP reporter, MC1R cells [6] [nM]	kon [7] [M⁻¹ s⁻¹]
B1	1	–	–	–	–	–	–	–	–
B2	–	0.14	2.36	1e+06	101	56.4	1.1	2.38	–
B3	–	0.16	5.98	–	133	66.3	5.4	2.14	–
B4	0.8	0.29	7.72	–	58.7	54.2	1.1	4.12	–
B5	–	0.05	2.68	–	–	–	–	1.66	–
B6	–	0.03	1.53	–	108	49.4	4.2	1.49	–
B7	1.3	0.25	–	–	79	54.5	1.1	3.62	–
B8	0.3	–	–	–	–	–	–	–	–
B9	–	0.09	2.49	–	64.2	49.7	1.1	1.29	130000
B10	0.1	0.03	1.44	–	62.8	55.2	1	1.04	–
B11	–	0.12	3.47	–	–	–	–	–	–
B12	–	0.11	3.49	–	58.1	43.4	1	1.96	–
